In this experiment the target is peptide of Example 1 (influenza virus). The experiment in a line: SPR, mAb captured on anti-mouse Fc, peptide injected. In general terms: SPR reads the build-up and loss of mass on a sensor chip optically.

The record followed here is patent US20190352376A1.

B1: F211-9D1 (antibody, V domains shown)
VL: DIVMSQSPSSLAVSVGEKVTMSCKSSQSLLNSRNQKNHLAWYQQKPGQSPKLLIYWASTRESGVPDRFSGDGSGTDFTLTISSVKAEDLAVYYCQQYYTYRTFGGGTKLEIK
VH: DVQLQESGPGLVKPSQSLSLTCSVTGYSITSDYYWNWIRQFPGNKLEWMAYIGYDGSKNYNPSLKNRISITRDTSKNQFFLKLNSVTTDDTATYYCTRDRANWDDYFDYWGQGTTLTVSS
In general, Kd refers to the constant that tells how readily two partners part at equilibrium. A higher Kd goes with weaker binding. On to B1, for which the Kd was found to be 393 pM.
